Reference: US20240059785A1 (QILU PUGET SOUND BIOTHERAPEUTICS, published 2024)

Columns and labels:
[1] = target: T1, human CD37 (Homo sapiens CD37) (Homo sapiens, UniProt P11049 1-281); experiment: FACS on WSU-DLCL2, Raji and Ramos cells, 10 µg/mL
T1 construct: Multi-pass cell surface antigen; present on Raji, Ramos, WSU-DLCL2 cells, human B cells, or on stably transfected CHO cells (CD37/CHO); also called hCD37
T1 sequence: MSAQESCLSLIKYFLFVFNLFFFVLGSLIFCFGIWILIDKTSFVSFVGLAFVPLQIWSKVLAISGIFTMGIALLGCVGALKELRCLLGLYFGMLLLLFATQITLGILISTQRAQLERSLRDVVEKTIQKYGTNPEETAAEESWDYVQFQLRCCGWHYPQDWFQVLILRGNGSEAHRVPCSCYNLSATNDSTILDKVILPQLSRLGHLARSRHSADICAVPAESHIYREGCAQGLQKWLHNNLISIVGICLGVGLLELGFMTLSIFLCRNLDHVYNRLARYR

[2] = target: T2, cynomolgus monkey CD37 (Macaca fasicularis CD37) (cynomolgus monkey (Macaca fasicularis …, UniProt P11049 1-281 (human entry))); experiment: FACS on CD20+ gated cynomolgus monkey PBMCs, compared with anti-hCD37 Ab1
T2 construct: On CD20+ or CD19+ B cells in cynomolgus monkey PBMCs; also called cynoCD37
T2 chain: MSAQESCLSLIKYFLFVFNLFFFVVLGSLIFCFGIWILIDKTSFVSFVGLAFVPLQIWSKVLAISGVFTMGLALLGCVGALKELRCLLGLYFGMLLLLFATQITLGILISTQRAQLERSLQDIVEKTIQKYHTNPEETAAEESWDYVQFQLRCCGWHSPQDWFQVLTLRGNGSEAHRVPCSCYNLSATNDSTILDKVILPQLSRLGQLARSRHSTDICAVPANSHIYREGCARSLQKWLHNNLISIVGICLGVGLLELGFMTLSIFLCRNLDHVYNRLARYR

[3] = target: T2, cynomolgus monkey CD37 (Macaca …); experiment: FACS on CD20+ gated cynomolgus monkey PBMCs
[4] = target: T3, human CD20 (Homo sapiens CD20) (Homo sapiens, UniProt P11836 1-297); experiment: FACS on Raji cells, titration
T3 construct: Multi-pass cell surface antigen; present on Raji, Ramos, WSU-DLCL2 cells, human CD19+ B cells, or on stably transfected CHO cells (CD20/CHO); also called hCD20
T3 sequence: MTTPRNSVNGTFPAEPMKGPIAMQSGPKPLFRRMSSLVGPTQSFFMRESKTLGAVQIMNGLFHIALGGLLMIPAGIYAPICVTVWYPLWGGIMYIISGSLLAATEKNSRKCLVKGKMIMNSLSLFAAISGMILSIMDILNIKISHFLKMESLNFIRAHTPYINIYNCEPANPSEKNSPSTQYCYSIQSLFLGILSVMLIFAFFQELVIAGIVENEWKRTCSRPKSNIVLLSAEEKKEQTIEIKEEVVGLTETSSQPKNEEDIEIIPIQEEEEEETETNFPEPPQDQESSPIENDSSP

[5] = target: T3, human CD20 (Homo sapiens CD20); experiment: FACS on Raji cells, crude transfection supernatant
[6] = target: T3, human CD20 (Homo sapiens CD20); experiment: FACS on WSU-DLCL2, Raji and Ramos cells, 10 µg/mL
[7] = target: T1, human CD37 (Homo sapiens CD37); experiment: FACS, APC-labelled antibody on CD19+ B cells of human PBMCs
[8] = target: T2, cynomolgus monkey CD37 (Macaca …); experiment: FACS, APC-labelled antibody on CD19+ B cells of cynomolgus monkey PBMCs
[9] = target: T2, cynomolgus monkey CD37 (Macaca …); experiment: FACS, ratio of EC50 on cynomolgus monkey B cells to EC50 on human B cells
[10] = target: T3, human CD20 (Homo sapiens CD20); experiment: FACS on CHO cells stably expressing hCD20 (CD20/CHO)
[11] = target: T1, human CD37 (Homo sapiens CD37); experiment: FACS on CHO cells stably expressing hCD37 (CD37/CHO), EC50 of Geo MFI

B1: anti-hCD37 Ab1 (antibody, human IgG1, kappa, V domains shown)
VH: QVQLVQSGAEVKKPGASVKVSCKASGYTFTGYNMNWVRQNNGQRLEWMGNIDPYYGGTTYNRKFKGRVTITVDTSASTAYMELKSLRSEDTAVYYCARSVGPMDYWGQGTLVTVSS
VL: DIQMTQSPSSLSASVGDRVTITCRTSENVYSYLAWYQQKPGKAPKLLIYFAKTLAEGVPSRFSGSGSGTQFTLTISSLQPEDSASYYCQHHSDNPWTFGGGTELEIKR
notes: Humanized IgG1/kappa derived from G28.1; also called aCD37 Ab1
[1]
  binding result: binds

B2: anti-hCD37 Ab1.N18 (antibody, human IgG1, kappa, name in Kabat numbering, V domains shown)
VH: QVQLVQSGAEVKKPGASVKVSCKASGYTFTGYNLNWVRQNNGQRLEWMGNIDPYYGGTTYNRKFQGRVTITVDTSASTAYMELKSLRSEDTAVYYCARSVGPMDYWGQGTLVTVSS
VL: DIQMTQSPSSLSASVGDRVTITCRTSENVYNYLAWYQQKPGKAPKLLIYFAKTIAEGVPSRFSGSGSGTQFTLTISSLQPEDSASYYCQHHSENPWTFGGGTELEIKR
notes: IgG1 variant of anti-hCD37 Ab1
[2]
  binding result: binds

B3: anti-hCD37 Ab1.N19 (antibody, human IgG1, kappa, name in Kabat numbering, V domains shown)
VH: QVQLVQSGAEVKKPGASVKVSCKASGYTFTGYNLNWVRQNNGQRLEWMGNIDPYYGGTTYNRKFQGRVTITVDTSASTAYMELKSLRSEDTAVYYCARSVGPLDYWGQGTLVTVSS
VL: DIQMTQSPSSLSASVGDRVTITCRTSENVYNYLAWYQQKPGKAPKLLIYFAKSLAEGVPSRFSGSGSGTQFTLTISSLQPEDSASYYCQHHGDNPWTFGGGTELEIKR
notes: as for B2
[3]
  binding result: binds

B4: anti-hCD37 Ab1.N12 (antibody, human IgG1, kappa, V domains shown)
VH: QVQLVQSGAEVKKPGASVKVSCKASGYTFTGYNLNWVRQNNGQRLEWMGNIDPYYGGTTYNRKFQGRVTITVDTSASTAYMELKSLRSEDTAVYYCARSVGPMDYWGQGTLVTVSS
VL: DIQMTQSPSSLSASVGDRVTITCRTSENVYSYLAWYQQKPGKAPKLLIYFAKSLAEGVPSRFSGSGSGTQFTLTISSLQPEDSASYYCQHHSENPWTFGGGTELEIKR
notes: anti-hCD37 Ab1 with VH M34L + K64Q and VL T53S + D93E; also called anti-CD37 Ab1.N12
[3]
  binding result: binds

B5: rituximab (antibody, V domains shown)
VH: QVQLQQPGAELVKPGASVKMSCKASGYTFTSYNMHWVKQTPGRGLEWIGAIYPGNGDTSYNQKFKGKATLTADKSSSTAYMQLSSLTSEDSAVYYCARSTYYGGDWYFNVWGAGTTVTVSA
VL: QIVLSQSPAILSASPGEKVTMTCRASSSVSYIHWFQQKPGSSPKPWIYATSNLASGVPVRFSGSGSGTSYSLTISRVEAEDAATYYCQQWTSNPPTFGGGTKLEIK
[4]
  EC50: 18.2 nM

B6: anti-hCD20 Ab1-T6 (antibody, human IgG1, kappa, name in Kabat numbering, V domains shown)
VH: QVQLVQSGAEVKKPGSSVKVSCKASGYTFTSYNMHWVRQAPGQGLEWMGRIYPGNGDTSYNQKFQGRVTLTVDKSSSTAYMELSSLRSEDTAVYFCARVVYYSNSYWYFDVWGTGTMVTVSS
VL: EIVLTQSPDFQSVTPKEKVTITCRASSSVSYMHWYQQKPDQSPKPLIYAPSNLASGVPSRFSGSGSGTDYTLTINSLEAEDAATYYCQQWSFNPPTFGAGTKLEIKR
notes: IgG1; also called variant #3
[5]
  binding result: binds

B7: anti-hCD20 Ab1-T7 (antibody, human IgG1, kappa, name in Kabat numbering, V domains shown)
VH: QVQLVQSGAEVKKPGSSVKVSCKASGYTFTSYNMHWVRQAPGQGLEWMGAIYPGEGDTSYNQKFQGRVTLTVDKSSSTAYMELSSLRSEDTAVYFCARVVYYSNSYWYFDVWGTGTMVTVSS
VL: EIVLTQSPDFQSVTPKEKVTITCRASSSVSYMHWYQQKPDQSPKPLIYAPSNLASGVPSRFSGSGSGTDYTLTINSLEAEDAATYYCQQWSFNPPTFGAGTKLEIKR
notes: IgG1; also called variant #7
[6]
  binding result: binds

B8: anti-hCD20 Ab1-T8 (antibody, human IgG1, kappa, name in Kabat numbering, V domains shown)
VH: QVQLVQSGAEVKKPGSSVKVSCKASGYTFTSYNMHWVRQAPGQGLEWMGAIYPGNGDTDYNQKFQGRVTLTVDKSSSTAYMELSSLRSEDTAVYFCARVVYYSNSYWYFDVWGTGTMVTVSS
VL: EIVLTQSPDFQSVTPKEKVTITCRASSSVSYMHWYQQKPDQSPKPLIYAPSNLASGVPSRFSGSGSGTDYTLTINSLEAEDAATYYCQQWSFNPPTFGAGTKLEIKR
notes: IgG1; also called variant #8
[5]
  binding result: binds

B9: anti-hCD20 Ab1.2.2 (antibody, human IgG4 S228P, kappa)
heavy: QVQLVQSGAEVKKPGSSVKVSCKASGYTFTSYNMHWVRQAPGQGLEWMGAIYPGNGDTSYNQKFQGRVTLTVDKSSSTAYMELSSLRSEDTAVYFCARVVYYSNSYWYFDVWGTGTMVTVSSASTKGPSVFPLAPCSRSTSESTAALGCLVKDYFPEPVTVSWNSGALTSGVHTFPAVLQSSGLYSLSSVVTVPSSSLGTKTYTCNVDHKPSNTKVDKRVESKYGPPCPPCPAPELLGGPDVFLFPPKPKDTLMISRTPEVTCVVVDVSHEDPEVKFNWYVDGVEVHNAKTKPREEQYNATYRVVSVLTVLHQDWLNGKEYKCKVSNKALPAPIEKTISKAKGQPREPQVYTLPPSREMTKNQVSLTCLVKGFYPSDIAVEWESNGQPENNYKTTPPVLDSDGSFFLYSKLTVDKSRWQQGNVFSCSVMHEALHNHYTQKSLSLSPGK
light: EIVLTQSPDFQSVTPKEKVTITCRASSSVSYMHWYQQKPDQSPKPLIYAPSNLASGVPSRFSGSGSGTDYTLTINSLEAEDAATYYCQQWSFNPPTFGAGTKLEIKRTVAAPSVFIFPPSDEQLKSGTASVVCLLNNFYPREAKVQWKVDNALQSGNSQESVTEQDSKDSTYSLSSTLTLSKADYEKHKVYACEVTHQGLSSPVTKSFNRGEC
notes: Ab1.2 with S239D, S298A
[4]
  EC50: 26.3 nM

B10: anti-hCD37 Ab1.A1 (antibody, human IgG1, kappa)
heavy: not shown
light: DIQMTQSPSSLSASVGDRVTITCRTSENVYNYLAWYQQKPGKAPKLLIYFAKTLAEGVPSRFSGSGSGTQFTLTISSLQPEDSASYYCQHHSDNPWTFGGGTELEIKRTVAAPSVFIFPPSDEQLKSGTASVVCLLNNFYPREAKVQWKVDNALQSGNSQESVTEQDSKDSTYSLSSTLTLSKADYEKHKVYACEVTHQGLSSPVTKSFNRGEC
notes: anti-hCD37 Ab1 with VH-M34V + VL-S31N; also called anti-CD37 Ab1.A1
[7]
  EC50: 4.05 nM
[8]
  EC50: 254 nM
[9]
  fold less potent than its binding of human B cells: 62.7 fold

B11: anti-hCD37 Ab1.A1.1 (antibody)
heavy: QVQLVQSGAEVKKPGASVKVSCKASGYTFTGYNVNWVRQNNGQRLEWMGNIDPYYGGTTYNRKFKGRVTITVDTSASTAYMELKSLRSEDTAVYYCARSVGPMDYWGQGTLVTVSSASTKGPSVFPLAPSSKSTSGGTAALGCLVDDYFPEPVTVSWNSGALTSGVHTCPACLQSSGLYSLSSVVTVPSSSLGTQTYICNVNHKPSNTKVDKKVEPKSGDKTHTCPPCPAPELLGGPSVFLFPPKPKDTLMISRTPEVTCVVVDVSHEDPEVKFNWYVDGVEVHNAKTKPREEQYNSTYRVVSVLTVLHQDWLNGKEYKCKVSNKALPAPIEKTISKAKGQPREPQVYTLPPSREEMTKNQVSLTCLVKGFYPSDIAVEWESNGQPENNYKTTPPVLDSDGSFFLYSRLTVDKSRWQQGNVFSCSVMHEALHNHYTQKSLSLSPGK
light: DIQMTQSPSSLSASVGDRVTITCRTSENVYNYLAWYQQKPGKAPKLLIYFAKTLAEGVPSRFSGSGSGTQFTLTISSLQPEDSASYYCQHHSDNPWTFGGGTELEIKRTVAAPSVFIFPPSDEQLKSGTAKVVCLLNNFYPREAKVQWKVDNALQSGNSCECVTEQDSKDSTYSLSSTLTLSKADYEKHKVYACEVTHQGLSSPVTKSFNRGES
notes: Ab1.A1 with HC K147D, F170C, V173C, C220G, K409R and LC S131K, Q160C, S162C, C214S; also called α-CD37 Ab1.A1.1
[10]
  binding result: no binding (tested: about 0.0002 nM to about 30 nM)
[11]
  EC50: 1.33 nM
